Data as given in publication PMC7218409, “The protein architecture of the endocytic coat analyzed by FRET microscopy” (Molecular Systems Biology, 2020).
Blank lines part the entries; values can stand above or below the binder they belong to.

Legend:
[1] = target: T1, Pan1, full length, with a C-terminal fluorescent tag (S. cerevisiae, UniProt P32521 1-1480); experiment: FRET or BRET; acceptor photobleaching in live yeast; inner cytoplasmic (nucleus and vacuole free) areas; GFP/mCherry or mTurquoise2/mNeonGreen pairs; settings: partners not purified
T1 construct: Pan1, S. cerevisiae; gene tagged at its endogenous locus; Linker RTLQVD between protein and C-terminal tag; also called Pan1-mCherry; C-terminus of Pan1; source: S. cerevisiae, expressed from its endogenous locus, in live cells; not shown: GFP or mCherry, C-terminal, kept
T1 sequence (looked up): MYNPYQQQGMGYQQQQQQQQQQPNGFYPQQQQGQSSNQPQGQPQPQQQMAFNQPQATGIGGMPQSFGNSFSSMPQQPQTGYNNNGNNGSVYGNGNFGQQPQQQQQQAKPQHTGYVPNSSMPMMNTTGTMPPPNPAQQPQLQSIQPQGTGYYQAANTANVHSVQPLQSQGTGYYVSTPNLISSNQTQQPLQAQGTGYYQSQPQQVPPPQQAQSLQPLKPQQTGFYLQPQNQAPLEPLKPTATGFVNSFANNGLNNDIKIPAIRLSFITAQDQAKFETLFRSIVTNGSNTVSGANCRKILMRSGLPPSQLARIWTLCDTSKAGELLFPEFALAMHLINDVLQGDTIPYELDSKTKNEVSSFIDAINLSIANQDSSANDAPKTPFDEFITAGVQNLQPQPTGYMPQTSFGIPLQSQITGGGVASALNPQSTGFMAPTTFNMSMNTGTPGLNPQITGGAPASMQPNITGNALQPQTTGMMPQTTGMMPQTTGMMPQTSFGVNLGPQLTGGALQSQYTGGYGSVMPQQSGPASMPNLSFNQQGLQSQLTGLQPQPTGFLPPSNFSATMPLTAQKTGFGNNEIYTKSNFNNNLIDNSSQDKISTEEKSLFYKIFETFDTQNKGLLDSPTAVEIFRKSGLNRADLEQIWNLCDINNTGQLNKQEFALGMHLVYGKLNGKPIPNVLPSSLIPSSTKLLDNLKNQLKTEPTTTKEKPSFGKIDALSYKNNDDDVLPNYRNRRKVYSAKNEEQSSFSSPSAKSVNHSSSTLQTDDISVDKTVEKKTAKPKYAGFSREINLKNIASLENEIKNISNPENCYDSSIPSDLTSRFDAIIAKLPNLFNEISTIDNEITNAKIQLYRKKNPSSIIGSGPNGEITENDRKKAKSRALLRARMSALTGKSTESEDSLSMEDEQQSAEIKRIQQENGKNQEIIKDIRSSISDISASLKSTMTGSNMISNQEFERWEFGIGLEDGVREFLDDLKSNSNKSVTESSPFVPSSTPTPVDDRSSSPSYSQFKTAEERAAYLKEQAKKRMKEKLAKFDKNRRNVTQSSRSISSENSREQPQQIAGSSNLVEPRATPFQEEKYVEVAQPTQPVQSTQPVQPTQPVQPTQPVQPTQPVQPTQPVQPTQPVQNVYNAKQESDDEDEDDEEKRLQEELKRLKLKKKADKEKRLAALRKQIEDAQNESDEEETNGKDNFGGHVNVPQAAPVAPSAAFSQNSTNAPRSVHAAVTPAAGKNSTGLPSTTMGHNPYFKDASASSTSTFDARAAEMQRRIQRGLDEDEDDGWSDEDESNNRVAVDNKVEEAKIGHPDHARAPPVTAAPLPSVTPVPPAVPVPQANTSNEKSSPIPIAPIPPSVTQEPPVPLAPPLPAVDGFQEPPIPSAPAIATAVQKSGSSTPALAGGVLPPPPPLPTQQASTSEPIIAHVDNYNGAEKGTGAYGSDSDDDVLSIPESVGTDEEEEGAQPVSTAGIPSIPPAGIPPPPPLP

[2] = target: T2, Ede1-mCherry (S. cerevisiae, UniProt P34216 1-1381); experiment: as above; settings: partners not purified
T2 construct: Ede1 (Eps15/R homolog), S. cerevisiae; gene tagged at its endogenous locus, no truncation told; Linker RTLQVD between protein and C-terminal tag; source: S. cerevisiae, expressed from its endogenous locus, in live cells; not shown: mCherry, C-terminal, kept
T2 sequence (looked up): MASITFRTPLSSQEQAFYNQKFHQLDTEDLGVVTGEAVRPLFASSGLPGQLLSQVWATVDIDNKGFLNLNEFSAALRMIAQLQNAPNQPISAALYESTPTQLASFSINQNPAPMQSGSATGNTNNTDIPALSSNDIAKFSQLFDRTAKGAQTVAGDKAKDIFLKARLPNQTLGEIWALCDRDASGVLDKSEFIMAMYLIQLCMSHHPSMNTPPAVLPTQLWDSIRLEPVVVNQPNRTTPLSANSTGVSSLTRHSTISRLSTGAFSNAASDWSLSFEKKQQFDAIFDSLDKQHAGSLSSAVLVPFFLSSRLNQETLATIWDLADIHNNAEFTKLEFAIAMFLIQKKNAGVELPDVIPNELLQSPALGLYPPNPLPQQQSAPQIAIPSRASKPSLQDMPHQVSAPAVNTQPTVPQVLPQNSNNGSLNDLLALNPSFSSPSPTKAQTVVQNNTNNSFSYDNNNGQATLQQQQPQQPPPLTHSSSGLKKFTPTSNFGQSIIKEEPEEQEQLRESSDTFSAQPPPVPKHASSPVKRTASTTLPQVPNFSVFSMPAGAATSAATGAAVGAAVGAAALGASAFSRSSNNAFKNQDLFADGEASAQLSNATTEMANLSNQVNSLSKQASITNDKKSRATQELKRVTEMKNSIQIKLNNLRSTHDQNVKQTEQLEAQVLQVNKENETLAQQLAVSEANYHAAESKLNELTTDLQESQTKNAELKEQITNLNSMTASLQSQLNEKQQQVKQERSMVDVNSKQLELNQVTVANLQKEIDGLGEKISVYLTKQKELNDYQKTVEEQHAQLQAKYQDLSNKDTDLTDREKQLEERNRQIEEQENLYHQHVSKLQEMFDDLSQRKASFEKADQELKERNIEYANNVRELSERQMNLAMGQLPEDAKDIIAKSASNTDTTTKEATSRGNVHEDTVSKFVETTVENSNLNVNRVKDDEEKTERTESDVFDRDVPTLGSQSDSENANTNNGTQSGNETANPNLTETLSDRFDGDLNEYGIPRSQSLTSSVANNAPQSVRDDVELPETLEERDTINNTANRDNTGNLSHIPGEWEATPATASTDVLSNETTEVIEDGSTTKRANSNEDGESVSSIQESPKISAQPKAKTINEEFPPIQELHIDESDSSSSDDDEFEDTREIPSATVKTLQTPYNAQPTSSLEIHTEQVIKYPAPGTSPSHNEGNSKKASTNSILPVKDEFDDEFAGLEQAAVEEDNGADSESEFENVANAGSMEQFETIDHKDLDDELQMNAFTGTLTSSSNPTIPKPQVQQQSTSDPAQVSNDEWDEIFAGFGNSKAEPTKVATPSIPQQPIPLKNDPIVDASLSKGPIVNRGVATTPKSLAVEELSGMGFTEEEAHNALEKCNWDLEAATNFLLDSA

FRET efficiency [1]: 4.5%
B1: GFP-End3 (natural protein, S. cerevisiae, UniProt P39013 1-349, looked up)
chain: MPKLEQFEIKKYWQIFSGLKPIENKVNHDQVLPILYNSKLDSSVLNKIWFLADIDDDDNLDFEEFVICMRLIFDMVNKNISSVPDELPDWLIPGSKVNLIKERKKRKQIENADLPPKKEIKVDWYMSPDDLNQYEKIYNSCAKLTDGTITFNELSTKLSTKFFNISKTDLNKVWSLINPQNLPSIDRDPTFYFIHCLRQRNDLGAEIPASLPNSLAEVCNKKQLSYDLRSSQPPTKRKEEANEVDNLRDNGQNSSSDSSGSNVLSNEDSIKQKYASLTDDQVANMREQLEGLLNYKKSEKTQGGSKLSKRINIRSITDDLDNIEQQVEVLENYLNNKRHELQALQAEIN
notes: End3, S. cerevisiae; gene tagged at its endogenous locus, no truncation told; Linker GS(GGGGS)3ATENNS between N-terminal tag and protein; also called N-terminus of End3; source: S. cerevisiae, expressed from its endogenous locus, in live cells; not shown: GFP, N-terminal, kept

FRET efficiency [2]: 2.5%
B2: Syp1-GFP (natural protein, S. cerevisiae, UniProt P25623 1-870, looked up)
chain: MTEQRTKYADSILTTKSPYEATETIRIRLSQVKLLNKDFYLLFKELANLKRNYAQQLRKIIAENEDITKILNAQMIESNVLTPQEMSAFRFNSLGELRNVWDTVIEELKSDLKSSTEYYNTLDQQVVRELKESVENNTSWRESKDLHSKLSKNAASIEHYSKNNENSSHLEEARRQWDQQSPYLFELFETIDYNRLDTLKNCMLRFQTSFSDYLLNTTKECETVMTKFLAFEPQSEIDRFAKDASQYNFQLSSSSKEVVPNNASPASATGARPVSVSNGAANTEREKKSPQKDKRKSAFGNIGHRLASASSSLTHNDLMNNEFSDSTNNSSLKSKKSSHTLRSKVGSIFGRNKTKNKRQQQSSSNSHIQASITETPNNSSTRVSSTATSSIYQKQRRPTYSSSKSNNWTPGEASDTPPLPPHATPKNVDAPVTADTPPAQTFTPSEVPPSTPQQSSPPTAKEPDSSNLPKTVPISISQPPLQPQSKTKPLPVEPASPSISLPTATVDNQPSGQVDSRPLHIRAPALPPSRKQNFIHNRDSQLYDSLPNHGSGATPTSSSLSSIPQERPVSTLSSQITGELRELNPQATGSSTSLVGQSLFQHSSLDTSQFGLNASIAEVLNASFKDGMLQNSQLIGEIALNYLPNSVMNSPLPIGINLRINNGAKFEKVILNQAFIERVAPEEFKVNPSFIDSRTLGAIKYSIKEPIAPIVIHPVWRFESHQASVVLTVKMSPSLPDEISQIVIEDLVVFVNIDGANATSALSKPQGSFSKEKKRITWRFKEPVVLTRNGEGQRLIARFITDGLAHESAKGVITKFTISETDNVALPHSGAGSGITLTCQELDENNPFGGEWLDVNTKRTLTTGNYHGLA
notes: Syp1 (FCHo1/2 homolog), S. cerevisiae; gene tagged at its endogenous locus, no truncation told; Linker RTLQVD between protein and C-terminal tag; source: S. cerevisiae, expressed from its endogenous locus, in live cells; not shown: GFP, C-terminal, kept
